Experimental findings from publication PMC3245871 (Journal of molecular biology, 2011) are described below.

Assay [1] has as its target T1, Z13-IL22-2 (human, UniProt Q9GZX6, SLADNNT (64–70) replaced by residues WNWDDIT). Nature of the assay: ITC.
Assay [2] concerns the target T1, Z13-IL22-2. Nature of the assay: ITC. This is another data set of the same source. In general terms: Isothermal titration calorimetry measures the heat released or taken up as one component is titrated into another.
Assay [3] addresses T1, Z13-IL22-2. In words: ITC. The source holds these as a separate data set.
Assay [4] has as its target T2, Z13-IL22-1 (human) (UniProt Q9GZX6).
T2 sequence: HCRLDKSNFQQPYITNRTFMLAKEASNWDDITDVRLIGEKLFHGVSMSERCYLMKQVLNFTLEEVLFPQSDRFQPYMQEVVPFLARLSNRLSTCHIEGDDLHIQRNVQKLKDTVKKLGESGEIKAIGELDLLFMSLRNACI
Nature of the assay: ITC.

Assay [5] concerns the target T1, Z13-IL22-2. In words: ITC. The source holds these as a separate data set.
Assay [6] deals with WT IL-22 (human, UniProt Q9GZX6). In words: ELISA. On the technique in general: An ELISA detects its analyte on a solid surface through an enzyme-linked reagent.
Assay [7] deals with T1, Z13-IL22-2. Nature of the assay: ELISA.
The target of assay [8] is mAb Z13e1 (human). Nature of the assay: ELISA.

Read-outs that look alike come from different tables or passages of the source.

B1: Fab Z13e1 (Fab, V domains shown)
VH: EVQLLESGPGLLKPSETLSLTCTVSGGSMINYYWSWIRQPPGERPQWLGHIIYGGTTKYNPSLESRITISRDISKNQFSLRLNSVTAADTAIYYCARVAIGVSGFLNYYYYMDVWGSGTAVTVSS
VL: ELTQSPATLSLSPGERATLSCRASQSVGRNLGWYQQKPGQAPRLLIYDASNRATGIPARFSGSGSGTDFTLTISSLEPEDFAVYYCQARLLLPQTFGQGTKVEIK
Broadly, the Kd is the constant that tells how readily two partners part at equilibrium. A high value points to weaker binding. For B1, the dH in assay [1] was -10.8 kcal/mol; in assay [2] it was -13.9 kcal/mol; in assay [3], -7.46 kcal/mol; in assay [4], -7.47 kcal/mol. Besides, the Kd was determined as 15000 nM in assay [4] and 73 nM in assay [5].

B2: mAb Z13e1 (antibody, V domains shown)
VH: B1 VH
VL: B1 VL
The term IC50 denotes the concentration needed to halve the response being measured. Read a low IC50 as inhibition by little substance. In the case of B2, the binding result in assay [6] is recorded as “no binding”. This molecule registered an IC50 in assay [7] of about 150 nM.

In assay [8], NWFDITNWLWYIKKKK [negative peptide control 94.1] registered an IC50 of over 5000 nM.
